The target of this assay is Down-regulated Hck kinase (containing an N-terminal His6 tag). Kind of assay: cell-based or functional assay.

As to HIV Nef protein, the Activity (nmol · sec^-1), activator at 50 micromolar (nmol · sec^-1) was 232 and the Fold-Activation, activator at 50 micromolar turned out to be 21 fold.
